Reference: patent US20260275311, “CRISPR NUCLEASE POLYPEPTIDES AND GENE EDITING SYSTEMS COMPRISING SUCH” (ARBOR BIOTECHNOLOGIES, INC., published 2026)
Substitutions are numbered along the chain they refer to.

What was measured:
[1] = test system: T1, Nuclease M E401R E401R; experiment: cell_activity; conditions: PAM TTAAA; HEK293T
T1 sequence: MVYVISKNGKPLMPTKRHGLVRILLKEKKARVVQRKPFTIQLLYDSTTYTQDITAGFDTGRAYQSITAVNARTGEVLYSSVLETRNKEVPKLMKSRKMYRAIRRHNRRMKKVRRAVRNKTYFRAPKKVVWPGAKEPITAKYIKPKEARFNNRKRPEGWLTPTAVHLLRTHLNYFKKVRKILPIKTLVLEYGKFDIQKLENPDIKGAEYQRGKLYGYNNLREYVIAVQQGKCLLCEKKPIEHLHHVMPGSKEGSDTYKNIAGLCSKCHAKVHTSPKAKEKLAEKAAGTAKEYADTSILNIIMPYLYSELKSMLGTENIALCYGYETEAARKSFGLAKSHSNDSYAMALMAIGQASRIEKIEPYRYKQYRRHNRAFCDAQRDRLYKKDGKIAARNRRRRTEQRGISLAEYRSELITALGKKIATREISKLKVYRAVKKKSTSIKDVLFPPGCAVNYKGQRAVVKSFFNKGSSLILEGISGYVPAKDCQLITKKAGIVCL

[2] = test system: T2, Nuclease M P481R P481R; experiment: cell_activity; conditions: PAM TTAAA; HEK293T
T2 sequence: T1 sequence with R401E, P481R

## GAGCCUGGUCCAUGGAGAGUGUCAACUACCCCCGUCUAAAGACGGAGGCAUGAGGUUUCGUAACCAAGUGUUGUACCUGCGGGUACAGUAGUUGAACAGGCGGCGAUGCGGCUGGGCACUCCAGGAUGCCACUCCCAGUCCCGGACACUGCCGACGAGCCGCAUCAAGCCGGGGGAGACCAACCGGCUAACGAUAGCCGAGCAAUUACCUAAAAAGAGGUGCAAAGGAAAUGGUAU / GAGCCTGGTCCATGGAGAGT / ACTCTCCATGGACCAGGCTC [Nuclease M VEGFA-T5 guide ; Nuclease M VEGFA-T5 target]
[1]
  binding signal (fold vs Nuclease M): 1.77
[2]
  binding signal (fold vs Nuclease M): 1.6
